From patent US11857609B2, “Ocular delivery of cell permeant therapeutics for the treatment of retinal edema” (The Trustees of Columbia University in the City of New York, dated 2024) come the findings set out here.

In assay [1] the target is T1, activated (cleaved) caspase-9 from mouse retina (mouse, UniProt Q8C3Q9). Put plainly: co-immunoprecipitation from mouse retina lysates after RVO and Pen1-XBIR3: anti-His IP, western blot for clCasp9, 24 h. The source says: (§1) To show target engagement, after RVO, mice were given Penl-XBIR3 and retinas were harvested and immunoprecipitated with anti-His followed by western blot for clCasp9 (FIG. 5, right panel).

In assay [2] the target is T1, activated (cleaved) caspase-9 from …. Nature of the assay: co-immunoprecipitation from mouse retina lysates after RVO and Pen1-XBIR3: anti-His IP, western blot for clCasp9, 4 h.
Description: as §1
A general note: In western blotting, separated proteins are transferred to a membrane and probed.

B1: Penetratin1-XBIR3 conjugate (other)
chain 1: CRQIKIWFQNRRMKWKK
chain 2: MGSSHHHHHHSSGLVPRGSHMSTNTCLPRNPSMADYEARIFTFGTWIYSVNKEQLARAGFYTDWALGEGDKVKCFHCGGGLRPSEDPWEQHARWYPGCRYLLEQRGQEYINNIHLTHS
modifications: N-terminal C(NPys) as printed; linked to XBIR3 by a disulfide bond (-s-s-); linked to Penetratin1 by a disulfide bond
As to B1, the “fold increase in binding” value in assay [1] was 45 fold; in assay [2] it was 21 fold.
